Data on two substances can be found in paper PMC7840905.

For experiment [1], the target named is SARS-CoV-2 Nsp15 H235A (SARS-CoV-2). The experiment is described as follows: cryo-EM structure.
Experiment [2] shares this target. Description: SEC.
Experiment [3] addresses SARS-CoV-2 Nsp15 H250A (SARS-CoV-2). Description: SEC.

Consider SARS-CoV-2 Nsp15 H235A (enzyme), for which the stoichiometry N in experiment [1] and in experiment [2] was 6 throughout.

In the case of SARS-CoV-2 Nsp15 H250A (enzyme), in experiment [3], the stoichiometry N came out at 6.
